Reference: patent US20220127355A1 (INTEGRAL MOLECULAR, published 2022)

Columns and labels:
Claudin 6 (human) [1] = molecular target: T1, Claudin 6 (human) (human, UniProt P56747 1-220); assay: flow cytometry, HEK-293T cells transiently transfected with human Claudin 6 (hsCLDN6); pUC = empty vector control
T1 construct: Expressed on transfected HEK-293T cells or naturally on PA-1 cells for flow cytometry; For the Octet KD values it was the intact protein embedded in virus-like particles (lipoparticles); also called hsCLDN6; CLDN6
T1 chain: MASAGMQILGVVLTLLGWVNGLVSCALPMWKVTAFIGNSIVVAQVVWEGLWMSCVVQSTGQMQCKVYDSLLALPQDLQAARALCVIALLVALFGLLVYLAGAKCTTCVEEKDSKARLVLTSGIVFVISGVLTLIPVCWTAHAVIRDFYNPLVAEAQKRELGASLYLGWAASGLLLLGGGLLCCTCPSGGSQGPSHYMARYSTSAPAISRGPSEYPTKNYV
Description: FIG. 1 illustrates the results of a binding assay showing that Claudin 6 MAbs bind to human Claudin 6. Human embryonic kidney 293T (HEK-293T) cells were transiently transfected with DNA for human Claudin 6 (hsCLDN6) or empty vector along with GFP (pUC) for 22 hours. Claudin 6 MAbs (IM136, IM171, IM172, and IM173) were added at serial dilutions (0.0-10 μg/mL) and incubated for 90 min with shaking. After a wash step, secondary antibody for detection (allophycocyanin-conjugated mouse anti-human IgG Fc; Southern Biotech) was added and incubated for 30-45 min. Cells were washed, and fluorescence was detected by high-throughput Intellicyt flow cytometry, with gating by graphing forward scatter against side scatter. Data were analyzed in GraphPad Prism software based on the geometric mean of fluorescence intensity for the cell population in each well.

Claudin 9 [2] = molecular target: T2, Claudin 9 (UniProt O95484 1-217); assay: flow cytometry, HEK-293T cells transiently transfected with the indicated claudin; pUC19 = empty vector control
T2 construct: Octet KD values: intact claudin protein embedded in virus-like particles (lipoparticles); also called CLDN9
T2 sequence (looked up): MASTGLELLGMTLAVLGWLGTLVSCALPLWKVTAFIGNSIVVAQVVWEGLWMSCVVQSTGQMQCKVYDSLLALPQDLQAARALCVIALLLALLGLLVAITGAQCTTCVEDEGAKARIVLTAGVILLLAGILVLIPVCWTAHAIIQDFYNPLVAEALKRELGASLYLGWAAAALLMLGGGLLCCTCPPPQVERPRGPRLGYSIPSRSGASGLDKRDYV
Description: (§1) FIG. 2 illustrates the results of a binding assay showing that Claudin 6 MAbs bind to human Claudin 6 preferentially over other Claudin proteins. Human embryonic kidney 293T (HEK-293T) cells were transiently transfected with DNA for the indicated Claudin protein or empty vector along with GFP (pUC) for 22 hours.

Claudin 4 = molecular target: T3, Claudin 4 (UniProt O14493 1-209); assay: as above
T3 construct: also called CLDN4
T3 sequence (looked up): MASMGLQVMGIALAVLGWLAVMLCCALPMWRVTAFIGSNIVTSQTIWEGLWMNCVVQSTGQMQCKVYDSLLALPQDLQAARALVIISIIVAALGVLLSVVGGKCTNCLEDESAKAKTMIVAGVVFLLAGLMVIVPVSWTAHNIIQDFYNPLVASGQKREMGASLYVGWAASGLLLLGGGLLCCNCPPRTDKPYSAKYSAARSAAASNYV
Description: as §1

Claudin 6 (human) [3] = molecular target: T1, Claudin 6 (human); assay: flow cytometry, PA-1 cells naturally expressing Claudin-6
Claudin 9 [4] = molecular target: T2, Claudin 9; assay: biosensor (Forte Octet), intact claudin in virus-like particles (lipoparticles)
Description: Affinity of various antibodies against CLDN6 as compared to CLDN9, CLDN3, and CLDN4 was measured using a biosensor. Biosensor affinity measurement of the various antibodies against the proteins was determined using a Forte Octet, which was used for biosensor measurements, using intact claudin proteins embedded in virus-like particles (lipoparticles). The KD for different antibodies is shown below.

B1: IM173 (antibody, V domains shown)
VH: AVTLDESGGGLQTPGGALSLVCKASGFTFSSYSMFWVRRAPGKGLEWVAGIDSGSTTFYGSAVKGRATISRDNGQSTVRLQLNNLRAEDTATYYCAKDAYGYCGWSGCSADSIDAWGHGTEVIVSS
VL: ALTQPSSVSANPGGTVEITCSGGNNYYGWYQQKSPGSAPVTVIYYNDKRPSDIPSRFSGSKSGSTGTLTITGVQADDEAVYFCGGWDSSGGIFGAGTTLTVL
notes: Detected with anti-human IgG Fc secondary
For B1, the “EC50 (read off the curve)” value (Claudin 6 (human) [1]) was about 0.4 µg/mL and the binding result (Claudin 9 [2]) was “no binding (tested: log [mAb] about -7.2 M)”.

B2: IM171 (antibody, V domains shown)
VH: AVTLDESGGGLQTPGGALSLVCKASGFDFSSYAMNWVRQAPGKGLEWVAGIGSTGSSTGYGPAVKGRATISRDNGQSTLRLQLNNLRAEDTAIYYCAKSVGNGNSWSGYIATSIDAWGHGTEVIVSS
VL: ALTQPSSVSANLGGTVKLTCSGGSSGYGWYQQKSPGSAPVTVIYSNDKRPSDIPSRFSGSLSGSTGTLTITGVQADDEAVYFCGSTDNSYVGIFGAGTTLTVL
notes: Detected with anti-human IgG Fc secondary; also called LM171
In the case of B2, the “EC50 (read off the curve)” value (Claudin 6 (human) [1]) is reported as about 0.4 µg/mL, the binding result (Claudin 4) is reported as “no binding (tested: log [mAb] about -7.2 M)” and the “EC50 (read off the curve)” value (Claudin 6 (human) [3]) is reported as about 2 µg/mL. The Kd (Claudin 9 [4]) was 902 nM.
